# Measured values published in patent US20240158497A1 (published 2024).
# T1: human GP130 extracellular domain expressed with a C-terminal mouse IgG2a Fc tag (hGP130-mFc) (human)
# T1 construct: also called dimeric human GP130
# T1 chain: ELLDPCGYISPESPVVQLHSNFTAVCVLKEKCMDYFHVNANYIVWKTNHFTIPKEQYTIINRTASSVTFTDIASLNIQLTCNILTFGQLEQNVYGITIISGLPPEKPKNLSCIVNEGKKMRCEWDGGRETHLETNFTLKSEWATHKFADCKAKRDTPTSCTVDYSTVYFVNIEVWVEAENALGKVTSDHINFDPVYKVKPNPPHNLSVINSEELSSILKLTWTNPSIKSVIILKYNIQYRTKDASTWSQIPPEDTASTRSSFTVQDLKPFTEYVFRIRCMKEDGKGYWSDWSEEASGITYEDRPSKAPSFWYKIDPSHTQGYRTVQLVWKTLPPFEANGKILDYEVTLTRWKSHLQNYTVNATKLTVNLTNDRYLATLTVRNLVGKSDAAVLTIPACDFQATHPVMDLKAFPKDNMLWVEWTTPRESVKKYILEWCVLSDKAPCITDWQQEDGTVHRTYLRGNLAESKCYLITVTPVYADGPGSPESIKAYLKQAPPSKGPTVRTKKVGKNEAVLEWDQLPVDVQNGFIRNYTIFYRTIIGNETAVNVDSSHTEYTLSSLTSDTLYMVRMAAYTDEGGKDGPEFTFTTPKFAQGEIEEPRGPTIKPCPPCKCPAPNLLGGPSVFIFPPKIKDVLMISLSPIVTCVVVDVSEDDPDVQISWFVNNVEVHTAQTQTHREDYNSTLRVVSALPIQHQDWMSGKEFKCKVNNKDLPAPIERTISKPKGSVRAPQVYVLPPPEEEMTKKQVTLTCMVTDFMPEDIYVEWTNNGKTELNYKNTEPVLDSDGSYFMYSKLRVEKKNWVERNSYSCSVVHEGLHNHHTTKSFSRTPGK
# How the values were obtained:
# [1] = target: T2, rat GP130 extracellular domain expressed with a C-terminal myc-myc-hexahistidine tag (rGP130-mmH) (rat, UniProt P40190 23-618); experiment: SPR Biacore, mAb captured via anti-hFc, 37 C
# T2 construct: Monomeric; the entry includes the myc-myc-His tag
# T2 sequence (P40190 other isoform, or with tags, fused parts or gaps): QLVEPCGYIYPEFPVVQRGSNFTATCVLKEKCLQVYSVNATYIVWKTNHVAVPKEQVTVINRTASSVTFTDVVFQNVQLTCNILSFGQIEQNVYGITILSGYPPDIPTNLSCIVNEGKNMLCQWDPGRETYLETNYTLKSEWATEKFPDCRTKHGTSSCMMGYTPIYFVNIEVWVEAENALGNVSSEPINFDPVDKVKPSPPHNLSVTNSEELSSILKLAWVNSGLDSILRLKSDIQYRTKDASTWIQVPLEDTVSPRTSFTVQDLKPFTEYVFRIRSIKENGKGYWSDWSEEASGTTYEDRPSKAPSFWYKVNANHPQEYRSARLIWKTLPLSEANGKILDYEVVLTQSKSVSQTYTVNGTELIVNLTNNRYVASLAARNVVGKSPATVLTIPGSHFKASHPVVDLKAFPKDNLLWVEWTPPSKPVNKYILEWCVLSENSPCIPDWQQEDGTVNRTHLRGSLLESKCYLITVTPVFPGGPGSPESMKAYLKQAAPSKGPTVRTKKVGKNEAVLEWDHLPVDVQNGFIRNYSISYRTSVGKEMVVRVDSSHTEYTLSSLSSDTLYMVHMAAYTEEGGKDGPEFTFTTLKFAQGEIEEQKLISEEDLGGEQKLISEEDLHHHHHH
# Method: (§1) Equilibrium dissociation constant (KD) for different GP130 reagents binding to purified anti-GP130 monoclonal antibodies were determined using a real-time surface plasmon resonance based Biacore 4000 biosensor. All binding studies were performed in 10 mM HEPES, 150 mM NaCl, 3 mM EDTA, and 0.05% v/v Surfactant Tween-20, pH 7.4 (HBS-ET) running buffer at 25° C. and 37° C. The Biacore sensor surface was first derivatized by amine coupling with a monoclonal mouse anti-human Fc antibody (GE, #BR-1008-39) to capture anti-GP130 monoclonal antibodies. […] Reagents tagged with “mmH” are monomeric, whereas reagents tagged with “mFc” are dimeric. Thus, for example, “hGP130-mmH” is also referred to as “monomeric human GP130,” and “hGP130-mFc” is also referred to as “dimeric human GP130.”
# (§2) The association rate (k a) and dissociation rate (kd) were determined by fitting the real-time binding sensorgrams to a 1:1 binding model with mass transport limitation using Scrubber 2.0c curve-fitting software. Binding dissociation equilibrium constant (KD) and dissociative half-life (t ½) were calculated from the kinetic rates as: […]
# [2] = target: T3, mouse GP130 extracellular domain expressed with a C-terminal myc-myc-hexahistidine tag (mGP130-mmH) (mouse, UniProt Q00560 23-617); experiment: SPR Biacore, mAb captured via anti-hFc, 37 C
# T3 construct: Monomeric; the entry includes the myc-myc-His tag
# T3 sequence (Q00560 other isoform, or with tags, fused parts or gaps): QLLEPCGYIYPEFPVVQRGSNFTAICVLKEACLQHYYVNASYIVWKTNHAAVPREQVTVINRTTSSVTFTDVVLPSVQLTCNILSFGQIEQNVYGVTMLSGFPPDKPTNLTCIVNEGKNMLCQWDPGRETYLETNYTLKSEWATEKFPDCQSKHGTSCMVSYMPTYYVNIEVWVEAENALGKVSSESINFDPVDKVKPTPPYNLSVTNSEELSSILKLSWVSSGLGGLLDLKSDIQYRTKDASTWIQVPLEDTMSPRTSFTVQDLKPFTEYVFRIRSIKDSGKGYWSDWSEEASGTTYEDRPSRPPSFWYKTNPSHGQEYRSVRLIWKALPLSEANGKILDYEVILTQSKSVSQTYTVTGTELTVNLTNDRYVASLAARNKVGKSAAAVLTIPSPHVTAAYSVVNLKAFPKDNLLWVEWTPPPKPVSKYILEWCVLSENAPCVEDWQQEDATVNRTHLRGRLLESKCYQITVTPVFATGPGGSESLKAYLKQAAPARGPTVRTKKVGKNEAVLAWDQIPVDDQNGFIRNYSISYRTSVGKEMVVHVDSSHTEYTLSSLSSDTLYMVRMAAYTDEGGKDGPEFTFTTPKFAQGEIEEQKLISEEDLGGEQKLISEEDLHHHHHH
# Method: as §1, §2
# [3] = target: T1, human GP130 extracellular domain …; experiment: SPR Biacore, mAb captured via anti-hFc, 37 C
# Method: as §1, §2
# [4] = target: T2, rat GP130 extracellular domain …; experiment: SPR Biacore, mAb captured via anti-hFc, 25 C
# Method: as §1, §2
# [5] = target: T3, mouse GP130 extracellular domain …; experiment: SPR Biacore, mAb captured via anti-hFc, 25 C
# Method: as §1, §2
# [6] = target: T1, human GP130 extracellular domain …; experiment: SPR Biacore, mAb captured via anti-hFc, 25 C
# Method: as §1, §2
Binder,100 nM Ag Bound (RU) [1] [RU],100 nM Ag Bound (RU) [2] [RU],binding result [2],100 nM Ag Bound (RU) [3] [RU],Kd [3] [nM],koff [3] [s⁻¹],kon [3] [M⁻¹ s⁻¹],t½ [3] [min],100 nM Ag Bound (RU) [4] [RU],100 nM Ag Bound (RU) [5] [RU],100 nM Ag Bound (RU) [6] [RU],Kd [6] [nM],koff [6] [s⁻¹],kon [6] [M⁻¹ s⁻¹],t½ [6] [min],binding result [4],binding result [5]
"MAb16656 (antibody, V domains shown, captured through anti-human Fc) VH: EVQLVESGGGLVQPGRSLRLSCAASGFTLDDFAMHWVRQAPGKGLEWVSGISWNSGNIGYADSVKGRFTISRDNARNSLYLQMNSLRAEDTALYYCTSGYYLYYAMDVWGQGTTVTVSS VL: not shown",0,0,no binding (tested: 100 nM),123,1.7,0.000297,175000,39,-1,0,98,1.68,0.000132,78100,88,,
"MAb16666 (antibody, V domains shown, captured through anti-human Fc) VH: EVQLVESGGGLVQSGGSLRLSCAASGFTFSRYEMNWVRQAPGKGLEWVAYISNTGTTRDYSDSVKGRFTISRDNAKNSLYLQMSSLRVEDTAVYYCVREKFSGTSDWFDPWGQGTLVTVSS VL: not shown",1,0,no binding (tested: 100 nM),285,0.298,0.00036,1.21e+06,32,1,1,253,0.12,0.000137,1.14e+06,85,no binding (tested: 100 nM),
"MAb16637 (antibody, V domains shown, captured through anti-human Fc) VH: QVQLVQSGAEVKKPGASVKVSCKASGYTFTSLGISWVRQAPGQGLEWMGWISAYSGNRDYAQKFQGRVTMTTDTSTSTAYMELRSLRSDDTAVYYCARSLRFDYWGQGTLVTVSS VL: not shown",0,-1,,246,0.65,0.000323,496000,36,0,1,189,0.647,0.00015,232000,77,no binding (tested: 100 nM),
"MAb16665 (antibody, V domains shown, captured through anti-human Fc) VH: QVQLVESGGGVVQPGRSLRLACAASGFTFRSYGMHWVRQAPGKGLEWVAVIWYDGSNKYYTDSVKGRFTISRDNSKNTLYLQMNSLRAEDTAMYYCAIDKWATVTTYLFDYWGQGTLVTVSS VL: not shown",-1,-1,,172,3.92,0.00256,653000,5,0,0,158,2.72,0.00109,399000,11,,
"MAb16659 (antibody, V domains shown, captured through anti-human Fc) VH: QVQLVQSGPEVKKPGSSVKVSCKASGGTIDRNEITWVRQAPGQGLEWMGVIIPILGEAHYERKFQGRLTITMDESTSTAYMELSNLRSEDTAVYYCARERAARGYLDYWGQGTLVTVSS VL: not shown",1,1,no binding (tested: 100 nM),227,0.0249,4.76e-05,1.91e+06,243,2,1,186,0.0366,6.28e-05,1.72e+06,184,no binding (tested: 100 nM),
"MAb16664 (antibody, V domains shown, captured through anti-human Fc) VH: QVQLVQSGTEVKKPGSSVKVSCKASGGTFSTYPINWVRQAPGQGLEWMGGIIPIFGTASYAQKFQGRVAITTDESTSTAYMELNSLRSEDTAVYYCARERPNWGSNDYWGQGTLVTVSS VL: not shown",0,1,no binding (tested: 100 nM),37,0.0815,0.000109,1.33e+06,106,0,0,26,0.116,0.000354,3.05e+06,33,no binding (tested: 100 nM),

# Next, values leading:
100 nM Ag Bound (RU) [1] [RU],100 nM Ag Bound (RU) [2] [RU],binding result [2],100 nM Ag Bound (RU) [3] [RU],Kd [3] [nM],koff [3] [s⁻¹],kon [3] [M⁻¹ s⁻¹],t½ [3] [min],100 nM Ag Bound (RU) [4] [RU],100 nM Ag Bound (RU) [5] [RU],100 nM Ag Bound (RU) [6] [RU],Kd [6] [nM],koff [6] [s⁻¹],kon [6] [M⁻¹ s⁻¹],t½ [6] [min],binding result [4],binding result [5],Binder
2,1,no binding (tested: 100 nM),199,0.457,0.000313,684000,37,0,0,169,0.173,9.66e-05,560000,120,no binding (tested: 100 nM),,"MAb16673 (antibody, V domains shown, captured through anti-human Fc) VH: EVQLVQSGAEVKKPGESLKISCKGSGYSFTSYWIDWVRQMPGKGLEWMGIIYPDDSDTRYSPSFQGQVTMSVDKSISTAYLQWSSLKASDTAIYYCARHERGIVEAGTDYYYYYGMDVWGQGTTVTVSS VL: not shown"
-2,-1,,59,5.85,0.00038,65100,30,-2,0,40,8.21,0.000241,29300,48,,,"MAb16669 (antibody, V domains shown, captured through anti-human Fc) VH: EVQLVESGGGLVQPGGSLRLSCAASGFTFSSYAMNWVRQAPGKGLEWVSAISGSGDSTYYTDSVKGRFTISRDNSKNTLYLQMNTLRAEDTAVYYCAKEEIVMLVGATPGWFDPWGQGTLVTVSS VL: not shown"
1,1,,114,4.15,0.00265,639000,4,-1,-1,90,0.772,0.000479,620000,24,,,"MAb16662 (antibody, V domains shown, captured through anti-human Fc) VH: EVQLVESGGGLVQPGGSLRLSCTASGFTFSNYAIFWVRQAPGKGLEYVSGISNNGVTKYYADSVRDRFTISRDNSRNTVSIQMDSLRTEDMAVYYCARENWGSDDGFDIWGQGTMVTVSS VL: not shown"
0,0,,136,1.2,0.000167,139000,69,1,0,91,1.92,0.000113,58800,102,no binding (tested: 100 nM),no binding (tested: 100 nM),"MAb16636 (antibody, V domains shown, captured through anti-human Fc) VH: QLQLQESGPGLVKPSETLSLICTVSGGSISSNNYYWGWIRQPPGKGLEWIGNLYGSGSTYYNPSLKSRVTISVDTSKNQFSLKLSFVTAADTAVYHCARWDTNGGAFDIWGQGTMVTVSS VL: not shown"
